Patent US20190307836A1 (Bicycle, published 2019)
Starred links: 1 amine or outer side, 2 acyl side, 3 side chain; linkers in the order of their positions; H or OH if unused. Positions of bridges follow the written chain, without caps; N, C: chain ends. Non-standard residues stand in square brackets, D forms with d. Chains are numbered I, II in the order given. No end group written: not given here. *: point of attachment. TATA = O=C(CC[*:1])N1CN(C(=O)CC[*:2])CN(C(=O)CC[*:3])C1; Dap(PYA) = diaminopropionic acid bearing 4-pentynoyl; 1Nal = N[C@@H](Cc1cccc2ccccc12)C(=O)O; Hyp = O=C(O)[C@@H]1C[C@@H](O)CN1; hArg = N=C(N)NCCCC[C@H](N)C(=O)O; tBuAla = CC(C)(C)C[C@H](N)C(=O)O; Nle = CCCC[C@H](N)C(=O)O; Pent4ynoyl = C#CCCC(=O)*; Dap = NC[C@H](N)C(=O)O; βAla = NCCC(=O)O; Sar = CNCC(=O)O

T1: Human Nectin-4 (residues Gly32-Ser349; NCBI RefSeq: NP_112178.2) with C-terminal FLAG tag (human, UniProt Q96NY8 32-349, randomly biotinylated with EZ-Link Sulfo-NHS-LC-LC-Biotin)
T1 construct: range 32-349; also called human Nectin-4 protein; not shown: C-terminal FLAG tag
T1 sequence (looked up): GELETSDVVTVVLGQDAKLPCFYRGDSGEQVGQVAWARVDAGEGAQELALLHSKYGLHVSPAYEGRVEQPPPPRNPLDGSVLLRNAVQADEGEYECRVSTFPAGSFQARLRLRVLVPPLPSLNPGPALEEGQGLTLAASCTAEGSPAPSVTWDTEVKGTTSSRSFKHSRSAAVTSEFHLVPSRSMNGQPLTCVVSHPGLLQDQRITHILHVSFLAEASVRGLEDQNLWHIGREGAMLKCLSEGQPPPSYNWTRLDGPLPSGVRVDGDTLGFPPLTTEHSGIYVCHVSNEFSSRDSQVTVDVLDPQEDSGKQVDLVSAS


Tests used:
[1] = target: CD137 expressed on cells (CHO cells expressing CD137; Jurkat cells of the Promega CD137 luciferase reporter assay) (UniProt Q07011); experiment: cell-based or functional assay
CD137 expressed on cells (CHO cells expressing CD137; Jurkat cells of the Promega CD137 luciferase reporter assay), sequence (Q07011 24-255 limits assumed): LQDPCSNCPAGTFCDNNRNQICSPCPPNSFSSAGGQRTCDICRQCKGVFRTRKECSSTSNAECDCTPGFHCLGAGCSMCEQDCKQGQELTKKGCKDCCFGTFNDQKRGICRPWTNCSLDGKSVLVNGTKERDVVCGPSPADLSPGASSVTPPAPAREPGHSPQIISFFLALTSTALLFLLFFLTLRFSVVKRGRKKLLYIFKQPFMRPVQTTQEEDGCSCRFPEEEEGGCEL

[2] = target: CD137 expressed on cells (CHO cells expressing CD137); Jurkat cells of the Promega CD137 luciferase reporter … (UniProt Q07011 24-255, limits assumed); experiment: cell-based or functional assay
CD137 expressed on cells (CHO cells expressing CD137); Jurkat cells of the Promega CD137 luciferase reporter …, sequence (Q07011 24-255 limits assumed): as above

[3] = target: CD137 on human PBMC (anti-CD3 stimulated) (human, UniProt Q07011 24-255); experiment: cell-based or functional assay
CD137 on human PBMC (anti-CD3 stimulated), sequence (Q07011 24-255): as the sequence (Q07011 24-255 limits assumed) above

[4] = target: T2, Recombinant human CD137 (R&D systems) (human, UniProt Q07011 24-186, biotinylated with EZ-Link Sulfo-NHS-LC-LC-Biotin); experiment: SPR (Biacore), biotinylated human CD137 on streptavidin chip
T2 construct: Bought protein; also called human CD137 protein; TNFRSF9
Description: The protein was desalted to remove uncoupled biotin using spin columns into PBS.
For analysis of peptide binding, a Biacore T200 or a Biacore 3000 instrument was used with a XanTec CMD500D chip. Streptavidin was immobilized on the chip using standard amine-coupling chemistry at 25° C. with HBS-N (10 mM HEPES, 0.15 M NaCl, pH 7.4) as the running buffer. Briefly, the carboxymethyl dextran surface was activated with a 7 min injection of a 1:1 ratio of 0.4 M 1-ethyl-3-(3-dimethylaminopropyl) carbodiimide hydrochloride (EDC)/0.1 M N-hydroxy succinimide (NHS) at a flow rate of 10 μl/min. For capture of streptavidin, the protein was diluted to 0.2 mg/ml in 10 mM sodium acetate (pH 4.5) and captured by injecting 120 μl of onto the activated chip surface. Residual activated groups were blocked with a 7 min injection of 1 M ethanolamine (pH 8.5) and biotinylated CD137 captured to a level of 270-1500 RU. Buffer was changed to PBS/0.05% Tween 20 and a dilution series of the peptides was prepared in this buffer with a final DMSO concentration of 0.5%. The top peptide concentration was 500 nM with 6 further 2-fold or 3-fold dilutions. The SPR analysis was run at 25° C. at a flow rate of 90 μl/min with 60 seconds association and 900 seconds dissociation. After each cycle a regeneration step (10 μl of 10 mM glycine pH 2) was employed. Data were corrected for DMSO excluded volume effects as needed. All data were double-referenced for blank injections and reference surface using standard processing procedures and data processing and kinetic fitting were performed using Scrubber software, version 2.0c (BioLogic Software). Data were fitted using simple 1:1 binding model allowing for mass transport effects where appropriate.

[5] = target: T1, Human Nectin-4 (residues Gly32-Ser349; …); experiment: SPR (Biacore 3000), biotinylated human Nectin-4 on streptavidin chip
Description: Streptavidin was immobilized on the chip using standard amine-coupling chemistry at 25° C. with HBS-N (10 mM HEPES, 0.15 M NaCl, pH 7.4) as the running buffer. […] Buffer was changed to PBS/0.05% Tween 20 and a dilution series of the peptides was prepared in this buffer with a final DMSO concentration of 0.5%. […] Data were corrected for DMSO excluded volume effects. All data were double-referenced for blank injections and reference surface using standard processing procedures and data processing and kinetic fitting were performed using Scrubber software, version 2.0c (BioLogic Software). Data were fitted using simple 1:1 binding model allowing for mass transport effects where appropriate.

Row | Binder | EC50 (nM), CD137 reporter assay, co-culture with PC3 (EphA2) [1] [nM] | Fold Induction over Background, CD137 reporter assay, co-culture with PC3 (EphA2) [1] [fold] | Kd [4] [nM] | also measured
1 | heterotandem bicyclic peptide complex BCY10576 (linker I:4-I:11-I:18, II:1-II:8-II:15 via TATA; not fully specified (C-terminus); also: chains joined by PEG5 linker on chain 1 N-terminus, triazole to Dap(PYA)) peptide 1: A[hArg]DC[Hyp]LVNPLCLHP[dD]W[hArg]C peptide 2: Ac-C[tBuAla]PE[dA]PYCFADPY[Nle]C-{Dap(PYA)} | 0.51 | 38 |  | 
2 | heterotandem bicyclic peptide complex BCY10568 (linker I:14-I:21-I:28, II:1-II:8-II:15 via TATA; not fully specified (C-terminus); numbers in words are those of the source; also: chains joined by PEG12 linker, triazole from PYA, linker on chain 2 Lys4 side chain) peptide 1: {Pent4ynoyl-βAla}-[Sar][Sar][Sar][Sar][Sar][Sar][Sar][Sar][Sar][Sar]A[hArg]DC[Hyp]LVNPLCLHP[dD]W[hArg]C peptide 2: Ac-C[tBuAla]PK[dA]PYCFADPY[Nle]CA | 0.25 | 32 |  | 
3 | heterotandem bicyclic peptide complex BCY10574 (linker I:4-I:11-I:18, II:1-II:8-II:15 via TATA; not fully specified (C-terminus); also: chains joined by PEG5 linker on chain 1 N-terminus, triazole to K(PYA)) peptide 1: A[hArg]DC[Hyp]LVNPLCLHP[dD]W[hArg]C peptide 2: Ac-C[tBuAla]PK(Pent4ynoyl)[dA]PYCFADPY[Nle]CA | 1 | 32 |  | 
4 | heterotandem bicyclic peptide complex BCY11377 (not fully specified; BCY8920: N-terminal acetyl; tBuAla1, D-Lys4 bearing the linker, Nle12; Ci, Cii, Ciii on TATA scaffold; BCY10861: N-terminal acetyl; K(PYA)9 bearing the linker; Ci, Cii, Ciii on TATA scaffold) peptide 1: SDKCSAGWLTMCQXLHLCPSH peptide 2: CXPEKPYCFADPYXCA |  |  |  | EC50 (nM), CD137 reporter assay, co-culture with RKO (PD-L1) [2]: 40 nM
5 | heterotandem bicyclic peptide complex BCY10572 (linker I:1-I:5-I:15, II:1-II:8-II:15 via TATA; not fully specified (C-terminus, bridges); also: chains joined by PEG5 linker on chain 1 N-terminus, triazole to D-Lys(PYA)) peptide 1: CP[1Nal][dD]CM[hArg]DWSTP[Hyp]WC peptide 2: Ac-C[tBuAla]PE[dK](Pent4ynoyl)PYCFADPY[Nle]CA |  |  | 5 | EC50 (nM), IFN-γ secretion, human PBMC co-culture with 4T1-D02(Nectin4+) [3]: 0.25 nM; max IFN-γ (pg/ml), human PBMC co-culture with 4T1-D02(Nectin4+) [3]: 17900 pg/mL
6 | heterotandem bicyclic peptide complex BCY8854 (BCY7732: N-terminal acetyl; Nle12; C-terminal Dap (diaminopropionic acid) bearing the linker; Ci, Cii, Ciii on TATA scaffold; BCY8846: N-terminal [PYA]-[B-Ala]-[Sar10]- (linker on PYA); 1Nal2, dD3, HArg5, HyP11; Ci, Cii, Ciii on TATA scaffold) peptide 1: CPXDCMXDWSTPXWC peptide 2: ACIEEGQYCFADPYXC |  |  | 108 | EC50 (nM), CD137 reporter assay, co-culture with H1376 (Nectin4) [2]: 1.2 nM; EC50 (nM), IFN-γ secretion, human PBMC co-culture with 4T1-D02(Nectin4+) [3]: 0.89 nM; max IFN-γ (pg/ml), human PBMC co-culture with 4T1-D02(Nectin4+) [3]: 16000 pg/mL; Kd [5]: 2.76 nM
7 | heterotandem bicyclic peptide complex BCY8943 (BCY7732: N-terminal acetyl; Nle12; C-terminal Dap (diaminopropionic acid) bearing the linker; Ci, Cii, Ciii on TATA scaffold; BCY8941: N-terminal [PYA]-[B-Ala]-[Sar10]- (linker on PYA); HArg12; Ci, Cii, Ciii on TATA scaffold) peptide 1: VGPCLWDPTPCANLHLXC peptide 2: ACIEEGQYCFADPYXC |  |  | 156 | Fold Induction over Background, CD137 reporter assay, co-culture with PC3 (EphA2) [2]: < 2 fold
8 | heterotandem bicyclic peptide complex BCY9759 (BCY7732: N-terminal acetyl; Nle12; C-terminal Dap (diaminopropionic acid) bearing the linker; Ci, Cii, Ciii on TATA scaffold; BCY8116: linker on N-terminus; 1Nal2, dD3, HArg5, HyP11; Ci, Cii, Ciii on TATA scaffold) peptide 1: CPXDCMXDWSTPXWC peptide 2: ACIEEGQYCFADPYXC |  |  | 44.3 | EC50 (nM), CD137 reporter assay, co-culture with H1376 (Nectin4) [2]: 2.7 nM; Kd [5]: 2.14 nM
9 | heterotandem bicyclic peptide complex BCY10573 (linker I:1-I:5-I:15, II:1-II:8-II:15 via TATA; not fully specified (C-terminus); also: linker to a chain's N/C-terminus via PEG5) peptide 1: CP[1Nal][dD]CM[hArg]DWSTP[Hyp]WC peptide 2: Ac-C[tBuAla]PE[dA]PYCFADPY[Nle]C-{Dap(PYA)} |  |  | 3.39 | 
10 | heterotandem bicyclic peptide complex BCY9351 (BCY8045: N-terminal acetyl; D-Ala8, Nle12; C-terminal Dap (diaminopropionic acid) bearing the linker; Ci, Cii, Ciii on TATA scaffold; BCY8846: N-terminal [PYA]-[B-Ala]-[Sar10]- (linker on PYA); 1Nal2, dD3, HArg5, HyP11; Ci, Cii, Ciii on TATA scaffold) peptide 1: CPXDCMXDWSTPXWC peptide 2: ACIEEGQYCFADPYXC |  |  | 3640 | Fold Induction over Background, CD137 reporter assay, co-culture with H1376 (Nectin4) [1]: < 2 fold; Kd [5]: 2.47 nM
11 | heterotandem bicyclic peptide complex BCY10570 (linker I:14-I:21-I:28, II:1-II:8-II:15 via TATA; not fully specified (C-terminus); numbers in words are those of the source; also: chains joined by PEG12 linker, triazole from PYA, linker on chain 2 D-Lys side chain) peptide 1: {Pent4ynoyl-βAla}-[Sar][Sar][Sar][Sar][Sar][Sar][Sar][Sar][Sar][Sar]A[hArg]DC[Hyp]LVNPLCLHP[dD]W[hArg]C peptide 2: Ac-C[tBuAla]PE[dK]PYCFADPY[Nle]CA | 0.41 | 38 |  | 
12 | heterotandem bicyclic peptide complex BCY9350 (BCY7732: N-terminal acetyl; Nle12; C-terminal Dap (diaminopropionic acid) bearing the linker; Ci, Cii, Ciii on TATA scaffold; BCY11942: N-terminal [PYA]-[B-Ala]-[Sar10]- (linker on PYA); 1Nal2, dD3, HArg5, dW7, HyP11, dW12; Ci, Cii, Ciii on TATA scaffold) peptide 1: CPXDCMXDWSTPXWC peptide 2: ACIEEGQYCFADPYXC |  |  | 69.4 | Fold Induction over Background, CD137 reporter assay, co-culture with H1376 (Nectin4) [1]: < 2 fold
13 | heterotandem bicyclic peptide complex BCY10571 (linker I:1-I:5-I:15, II:1-II:8-II:15 via TATA; not fully specified (C-terminus, bridges); also: chains joined by PEG5 linker on chain 1 N-terminus, triazole to K(PYA)) peptide 1: CP[1Nal][dD]CM[hArg]DWSTP[Hyp]WC peptide 2: Ac-C[tBuAla]PK(Pent4ynoyl)[dA]PYCFADPY[Nle]CA |  |  | 12 | EC50 (nM), IFN-γ secretion, human PBMC co-culture with 4T1-D02(Nectin4+) [3]: 0.44 nM; max IFN-γ (pg/ml), human PBMC co-culture with 4T1-D02(Nectin4+) [3]: 18300 pg/mL
14 | heterotandem bicyclic peptide complex BCY10577 (linker I:14-I:21-I:28, II:1-II:8-II:15 via TATA; not fully specified (C-terminus); numbers in words are those of the source; also: chains joined by CH2 linker, triazole from PYA, linker on Dap side chain) peptide 1: {Pent4ynoyl-βAla}-[Sar][Sar][Sar][Sar][Sar][Sar][Sar][Sar][Sar][Sar]A[hArg]DC[Hyp]LVNPLCLHP[dD]W[hArg]C peptide 2: Ac-C[tBuAla]PE[dA]PYCFADPY[Nle]C[Dap] | 0.28 | 37 |  | 
15 | heterotandem bicyclic peptide complex BCY10575 (linker I:4-I:11-I:18, II:1-II:8-II:15 via TATA; not fully specified (C-terminus); also: chains joined by PEG5 linker on chain 1 N-terminus, triazole to D-Lys(PYA)) peptide 1: A[hArg]DC[Hyp]LVNPLCLHP[dD]W[hArg]C peptide 2: Ac-C[tBuAla]PE[dK](Pent4ynoyl)PYCFADPY[Nle]CA | 0.62 | 38 |  | 
